{"source": "paper PMC6324732", "about": "(Cancer immunology research, 2018)"}
{"target": "HLA-A*02:01 heavy chain / β2-microglobulin (human)", "experiment": "differential scanning fluorimetry", "settings": "not given", "units": {"Tm of the peptide/HLA-A2 complex": "°C"}}
{"molecule": "TAX peptide", "Tm of the peptide/HLA-A2 complex": 61.9}
{"tested_on": "HLA-A2", "experiment": "not given", "settings": "each complex refolded with HLA-A2 individually, DSF; cited from earlier work", "units": {"Tm value determined by another lab": "°C"}}
{"molecule": "YMDGTMSQV [Tyrosinase]", "Tm value determined by another lab": 67.3}
{"tested_on": "HLA-A2", "experiment": "not given", "settings": "pep/HLA-A2 complexes; cited from earlier work", "units": {"half-life of the complex (reported)": "h"}}
{"molecule": "FLTSVINRV", "half-life of the complex (reported)": 22.3}
{"tested_on": "HLA-A2-restricted T-cell response", "experiment": "not given", "settings": "HLA-A2-restricted epitopes; cited from earlier work"}
{"molecule": "FLTSVINRV", "immunogenicity (reported)": "immunogenic"}
{"target": "HLA-A*02:01 heavy chain / β2-microglobulin (human)", "experiment": "differential scanning fluorimetry", "settings": "not given", "remark": "another data set of the same source", "units": {"Tm of the peptide/HLA-A2 complex": "°C"}}
{"molecule": "VLENFTIFLV", "Tm of the peptide/HLA-A2 complex": 48.2}
{"molecule": "SLADEAEVYL", "note": "[GAS7 neoantigen peptide …]", "Tm of the peptide/HLA-A2 complex": 59.2}
{"molecule": "FIASNGVKLV", "note": "[ACTININ neoantigen peptide …]", "Tm of the peptide/HLA-A2 complex": 56.9}
{"molecule": "GIVEGLITTV", "note": "[GAPDH neoantigen peptide …]", "Tm of the peptide/HLA-A2 complex": 58.5}
{"molecule": "TLWCSPIKV", "note": "[SRPX neoantigen peptide …]", "Tm of the peptide/HLA-A2 complex": 63.7}
{"molecule": "ALIHHNTYL", "note": "[ERBB2 neoantigen peptide …]", "Tm of the peptide/HLA-A2 complex": 59.4}
{"molecule": "HIAKSLFEV", "note": "[FLNA neoantigen peptide …]", "Tm of the peptide/HLA-A2 complex": 56.4}
{"molecule": "FLLDEAIGL", "note": "[SPOP neoantigen peptide …]", "Tm of the peptide/HLA-A2 complex": 60.7}
{"molecule": "VLHDDLLEA", "note": "[KIAA0223 neoantigen peptide …]", "Tm of the peptide/HLA-A2 complex": 59.7}
{"molecule": "ACDPHSGHFV", "note": "[CDK4 neoantigen peptide …]", "Tm of the peptide/HLA-A2 complex": 59.9}
{"molecule": "SLFEGIDIYT", "note": "[HSP70 neoantigen peptide …]", "Tm of the peptide/HLA-A2 complex": 59.8}
{"molecule": "VLAKKLKFV", "note": "[ACPP neoantigen peptide …]", "Tm of the peptide/HLA-A2 complex": 56.8}
{"molecule": "ILNAMIAKI", "note": "[HAUS3 neoantigen peptide …]", "Tm of the peptide/HLA-A2 complex": 56.9}
{"molecule": "TLLSQVNKV", "note": "[CIT neoantigen peptide …]", "Tm of the peptide/HLA-A2 complex": 53.2}
{"molecule": "VLLGVKLFGV", "note": "[COL18A1 neoantigen peptide …]", "Tm of the peptide/HLA-A2 complex": 60.9}
{"molecule": "FLDEFMEGV", "note": "[ME-1 neoantigen peptide …]", "Tm of the peptide/HLA-A2 complex": 63.2}
{"molecule": "ALYGFVPVL", "note": "[GANAB neoantigen peptide …]", "Tm of the peptide/HLA-A2 complex": 61.7}
{"molecule": "LLLDDLLVSI", "note": "[PRDX5 neoantigen peptide …]", "Tm of the peptide/HLA-A2 complex": 55.3}
{"molecule": "FLSDHLYLV", "note": "[CDC37L1 neoantigen peptide …]", "Tm of the peptide/HLA-A2 complex": 61.8}
{"molecule": "GLFGDIYLAI", "note": "[CSNK1A1 neoantigen peptide …]", "Tm of the peptide/HLA-A2 complex": 52.6}
{"molecule": "SVLENFTIFL", "Tm of the peptide/HLA-A2 complex": 55.8}
{"molecule": "LLHTELERFL", "note": "[DCAKD neoantigen peptide …]", "Tm of the peptide/HLA-A2 complex": 42.9}
{"molecule": "VVMSWAPPV", "note": "[FNDC3B neoantigen peptide …]", "Tm of the peptide/HLA-A2 complex": 61.6}
{"molecule": "ILDKVLVHL", "note": "[CLPP neoantigen peptide …]", "Tm of the peptide/HLA-A2 complex": 57.1}
{"molecule": "ILTGLNYEV", "note": "[NSDHL neoantigen peptide …]", "Tm of the peptide/HLA-A2 complex": 61.4}
{"molecule": "FMPDFDLHL", "note": "[AHNAK neoantigen peptide …]", "Tm of the peptide/HLA-A2 complex": 60.1}
